In US20020137703, “Protection-of-telomere-1 (POT-1) protein and encoding polynucleotides” (published 2002):

T1: SpPot1p (Pot1, full length) (Schizosaccharomyces pombe, UniProt O13988 O13988:1-555)
T1 sequence: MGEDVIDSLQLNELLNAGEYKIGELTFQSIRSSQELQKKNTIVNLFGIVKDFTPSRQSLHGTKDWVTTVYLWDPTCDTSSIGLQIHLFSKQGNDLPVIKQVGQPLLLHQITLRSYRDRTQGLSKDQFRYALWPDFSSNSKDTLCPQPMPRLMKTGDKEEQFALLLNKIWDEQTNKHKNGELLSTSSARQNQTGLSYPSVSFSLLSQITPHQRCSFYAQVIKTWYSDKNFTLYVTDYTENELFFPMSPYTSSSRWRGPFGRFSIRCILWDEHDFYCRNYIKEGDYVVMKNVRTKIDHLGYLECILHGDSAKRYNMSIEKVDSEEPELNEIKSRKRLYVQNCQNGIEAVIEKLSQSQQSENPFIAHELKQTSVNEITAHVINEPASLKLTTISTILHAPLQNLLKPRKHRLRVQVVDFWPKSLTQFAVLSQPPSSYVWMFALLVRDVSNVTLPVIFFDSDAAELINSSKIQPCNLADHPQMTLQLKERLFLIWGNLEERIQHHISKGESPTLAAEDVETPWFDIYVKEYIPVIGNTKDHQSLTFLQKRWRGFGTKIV

T2: SpPot1p N-terminal 22 kDa fragment (Schizosaccharomyces pombe, UniProt O13988 O13988:1-185)
T2 sequence: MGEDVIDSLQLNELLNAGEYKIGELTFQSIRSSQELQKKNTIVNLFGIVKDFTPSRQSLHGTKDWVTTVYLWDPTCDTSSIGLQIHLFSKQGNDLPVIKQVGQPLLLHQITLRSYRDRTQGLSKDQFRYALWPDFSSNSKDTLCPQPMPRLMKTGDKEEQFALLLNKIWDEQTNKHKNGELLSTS

T3: hPot1p (Homo sapiens, UniProt Q9NUX5 Q9NUX5:1-634)
T3 sequence: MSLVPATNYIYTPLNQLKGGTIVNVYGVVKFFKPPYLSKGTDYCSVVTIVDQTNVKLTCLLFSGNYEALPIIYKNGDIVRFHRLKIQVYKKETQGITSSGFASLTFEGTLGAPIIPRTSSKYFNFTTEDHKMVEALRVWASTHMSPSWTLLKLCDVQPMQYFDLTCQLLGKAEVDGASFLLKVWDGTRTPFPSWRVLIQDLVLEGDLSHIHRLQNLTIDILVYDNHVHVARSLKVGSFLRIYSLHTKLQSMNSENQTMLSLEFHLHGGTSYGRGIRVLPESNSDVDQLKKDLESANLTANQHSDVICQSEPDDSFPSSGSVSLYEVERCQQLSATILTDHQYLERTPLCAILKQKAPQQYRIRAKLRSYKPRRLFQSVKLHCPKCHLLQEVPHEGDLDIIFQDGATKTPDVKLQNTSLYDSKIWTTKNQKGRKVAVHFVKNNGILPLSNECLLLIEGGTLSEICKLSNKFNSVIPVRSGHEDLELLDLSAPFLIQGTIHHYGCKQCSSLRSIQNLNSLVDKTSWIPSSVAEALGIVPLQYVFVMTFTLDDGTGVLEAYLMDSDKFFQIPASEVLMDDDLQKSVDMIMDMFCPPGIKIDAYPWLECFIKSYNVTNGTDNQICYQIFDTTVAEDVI


How the values were obtained:
[1] = biological target: T1, SpPot1p (Pot1, full length); experiment: listed as SpPot1p-binding oligonucleotide; conditions: tags: N-terminal V5 and His6 tags plus pQE30 N-terminal His6; E. coli M15
[2] = biological target: T1, SpPot1p (Pot1, full length); experiment: EMSA; 25 mM HEPES pH 7.5, 1 mM EDTA, 50 mM NaCl, 5% glycerol, 20 C, PBoli109 competitor; conditions: tags: N-terminal V5 and His6 tags plus pQE30 N-terminal His6; E. coli M15; label: 5' 32P
Experimental: (§1) C-strand ([…]) and G-strand ([…]) were 5′ ³²P-labeled using T4 polynucleotide kinase and γ-³²P-ATP. Duplex DNA was generated by annealing equimolar amounts of radiolabeled C-strand and unlabelled G-strand. Binding reactions (10 μl) were carried out in 25 mM HEPES (pH 7.5), 1 mM EDTA, 50 mM NaCl, 5% glycerol, and 2.5 μM PBoli109 ([…]) as non-specific competitor. Pot1p (50 ng) was incubated with the indicated DNA substrates (1 ng) for 15 min at 20° C. Complexes were analyzed by electrophoresis at 4° C. through a 4-20% TBE gel (Invitrogen) run at 150 V for 80 min. The Pot1p-DNA complex is indicated by an open arrow in FIG. 3A. […] Truncated Pot1p-DNA complex is indicated by a closed arrow.

[3] = biological target: T2, SpPot1p N-terminal 22 kDa fragment; experiment: EMSA; truncated Pot1p-DNA complex seen in mixture with full-length protein; conditions: tags: N-terminal V5 and His6 tags; present in mixture with full-length protein; label: 5' 32P
Experimental: FIG. 3B: Same as FIG. 3A except that the added protein contained truncated Pot1p as well as full length protein. Truncated Pot1p-DNA complex is indicated by a closed arrow.
as §1

hPot1p [4] = biological target: T3, hPot1p; experiment: listed as hPot1p-binding oligonucleotide; conditions: tags: N-terminal His6 (pQE30); E. coli
hPot1p [5] = biological target: T3, hPot1p; experiment: EMSA; same conditions as SpPot1p; conditions: tags: N-terminal His6 (pQE30); E. coli; label: 32P

| Binder | binding result [1] | further results |
| --- | --- | --- |
| CTGTAAGCATATCATCATTCGAGGTTAC (ssDNA) [PBoli183] | binds |  |
| GGTTACGGTTACCATCATTCGAATCTCG (ssDNA) [PBoli186] | binds |  |
| GGTTACAGGTTACAGGTTAC (ssDNA) [PT1] | binds |  |
| GGTTACACGGTTACAGGTTACAGGTTACAGGGTTACGGTTACG (ssDNA) [S. pombe G-strand (PBoli112)] |  | binding result [2]: binds; binding result [3]: binds |
| GGTTAGGGTTAGGGTTAGGG (ssDNA) [PBoli178] |  | binding result (hPot1p [4]): binds |
| CTGTAAGCGGTTACGGTTACGAATCTCG (ssDNA) [PBoli188] | binds |  |
| GGTTACGCATATCATCATTCGAATCTCG (ssDNA) [PBoli184] | binds |  |
| CGGTTACACGGTTACAGGT (ssDNA) [PBoli53] | binds |  |
| TTAGGGTTAGGGTTAGGGTT (ssDNA) [PBoli177] |  | binding result (hPot1p [4]): binds |
| CTGTAAGCATATCATCGGTTACGGTTAC (ssDNA) [PBoli185] | binds |  |
| GGTTACACGGTTACAGGTTACAGGTTACAG (ssDNA) [PBoli110] | binds |  |
| GGTTACGGTTACAGGTTACA (ssDNA) [PBoli52] | binds |  |
| TTAGGGTTAGGGTTAGGGTTAGGGTTAGGG (ssDNA) [human G-strand (TTAGGG)5 (PBoli179)] |  | binding result (hPot1p [5]): binds |
| CTGTAAGCATATGGTTACTCGAATCTCG (ssDNA) [PBoli187] | binds |  |
| GTTACAGGTTACGGTTACGG (ssDNA) [PBoli54] | binds |  |
| TGTGGTGTGTGGGTGTGCGGTT (ssDNA) [PBoli86] | binds |  |
